Experiments:
[1] = molecular target: T1, N-myristoylated human Arf1 bound to GTPγS, anchored on nanodiscs (myrArf1·GTPγS) (human, UniProt P84077 1-181, N-terminal myristoyl); test: not stated; binding of PH variants and Arf variants compared with wild type (Fig. SI8 and Table SI1); the method is not given; settings: both partners purified
T1 construct: human Arf1, Uniprot P84077; also called Arf·GTP

[2] = molecular target: T1, N-myristoylated human Arf1 bound to …; test: cell-based or functional assay
myrArf1 Glu54Ala [3] = molecular target: T2, myrArf1 Glu54Ala (human, UniProt P84077 1-181, Glu54Ala, N-terminal myristoyl); test: not stated; binding of PH variants and Arf variants compared with wild type (Fig. SI8 and Table SI1); the method is not given; settings: both partners purified
T2 construct: human Arf1, Uniprot P84077; also called Glu54Ala in Arf; source: E. coli BL21 (DE3), co-expressed with yeast NMT, purified
T2 sequence (P84077 whole entry E54A): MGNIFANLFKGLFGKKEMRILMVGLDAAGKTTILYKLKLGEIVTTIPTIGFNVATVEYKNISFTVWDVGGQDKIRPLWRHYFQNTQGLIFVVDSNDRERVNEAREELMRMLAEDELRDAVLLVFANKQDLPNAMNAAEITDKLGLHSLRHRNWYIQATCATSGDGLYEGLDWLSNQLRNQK

myrArf1 Glu54Ala [4] = molecular target: T2, myrArf1 Glu54Ala; test: cell-based or functional assay
[5] = molecular target: T3, MTSL-tagged myrArf1 with Lys73 replaced by Cys (Cys159 mutated to Ala), GTPγS, on nanodiscs (human, UniProt P84077 1-181, Cys159 mutated to Ala | Lys73 replaced with Cys, N-terminal myristoyl; MTSL nitroxide spin label on Cys73 via a disulfide bond); test: intermolecular PRE NMR; 60 μM protiated MTSL-labelled myrArf1 variants on nanodiscs, 50 μM methyl-labelled ASAP1 PH, 25 °C; paramagnetic against ascorbate-reduced sample; settings: both partners purified
T3 construct: human Arf1, Uniprot P84077, mono-cysteine variant; also called spin-labeled myrArf1 variant (Lys73 to Cys); source: E. coli BL21 Star (DE3), co-expressed with yeast NMT, purified; spin-labelled on nanodiscs
T3 sequence (P84077 other isoform, or with tags, fused parts or gaps with the stated changes): as the sequence (P84077 whole entry E54A) above, with A54E, K73C, C159A counted along it

[6] = molecular target: T4, MTSL-tagged myrArf1 K38C (Cys159 mutated to Ala), GTPγS, on nanodiscs (human, UniProt P84077 1-181, Cys159 mutated to Ala | K38C, N-terminal myristoyl; MTSL nitroxide spin label on Cys38 via a disulfide bond); test: as above; settings: both partners purified
T4 construct: human Arf1, Uniprot P84077, mono-cysteine variant; source: E. coli BL21 Star (DE3), co-expressed with yeast NMT, purified; spin-labelled on nanodiscs
T4 sequence (P84077 other isoform, or with tags, fused parts or gaps with the stated changes): as the sequence (P84077 whole entry E54A) above, with K38C, A54E, C159A counted along it

[7] = molecular target: T5, ASAP1 ZA domain (Arf GAP domain and ankyrin repeats), residues 447-724 of ASAP1 (UniProt Q9QWY8 447-724); test: intermolecular PRE NMR; Cys159-MTSL myrArf1 (non-hydrolysable GTP analog), alone or in complex with wt PH, on nanodiscs; 100 μM Arf or Arf:PH and 100 μM isotopically labeled ZA; settings: both partners purified
T5 construct: Mouse is stated only for the PH domain constructs; the same residue numbers are used; Isotopically labelled in the PRE experiment; also called ^ΔPHZA; isolated ZA domain
T5 sequence (looked up): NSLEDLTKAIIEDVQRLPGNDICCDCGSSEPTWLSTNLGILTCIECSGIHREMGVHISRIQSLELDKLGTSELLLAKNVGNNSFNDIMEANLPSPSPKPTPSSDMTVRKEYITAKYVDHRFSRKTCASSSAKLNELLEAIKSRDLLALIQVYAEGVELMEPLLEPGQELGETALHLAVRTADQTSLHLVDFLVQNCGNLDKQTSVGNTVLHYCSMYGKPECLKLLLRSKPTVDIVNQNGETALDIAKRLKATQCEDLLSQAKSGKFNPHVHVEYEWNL

T1 sequence (P84077 whole entry): as the sequence (P84077 whole entry E54A) above, with A54E counted along it

B1: ΔN14 ASAP1 PH domain, [339-451]ASAP1 (domain or fragment, mouse, UniProt Q9QWY8 339-451, looked up)
chain: GSEKKGFLLKKSDGIRKVWQRRKCAVKNGILTISHATSNRQPAKLNLLTCQVKPNAEDKKSFDLISHNRTYHFQAEDEQDYIAWISVLTNSKEEALTMAFRGEQSTGENSLED
notes: mouse ASAP1, PH domain with shortened N-terminal extension, residues 339-451; tied by counting 14 residues from 325; also called ^ΔN14PH; source: E. coli BL21 Star (DE3) or BL21 (DE3), purified (HiTrap SP, SEC)
fold weaker binding than wt PH [1]: 2 fold
fold decrease in GAP activity compared with PH [2]: 100 fold

B2: wild-type ASAP1 PH domain, [325-451]ASAP1 (domain or fragment, mouse, UniProt Q9QWY8 325-451, looked up)
chain: GGYSMHQLQGNKEYGSEKKGFLLKKSDGIRKVWQRRKCAVKNGILTISHATSNRQPAKLNLLTCQVKPNAEDKKSFDLISHNRTYHFQAEDEQDYIAWISVLTNSKEEALTMAFRGEQSTGENSLED
notes: mouse ASAP1, PH domain with its N-terminal extension, residues 325-451; also called wt PH
fold reduction of binding against wild type (myrArf1 Glu54Ala [3]): 2 fold
fold decrease in GAP activity on Arf1 Glu54Ala compared with wild type (C50 of PZA, Fig. 7C) (myrArf1 Glu54Ala [4]): 70 fold
binding result [5]: binds
binding result [6]: binds

B3: Cys159-MTSL tagged myrArf1 bound to a non-hydrolysable GTP analog, on nanodiscs (natural protein)
chain: not shown
modifications: N-terminal myristoyl; MTSL nitroxide spin label on Cys159
notes: human Arf1, Uniprot P84077, native Cys159 spin-labelled; source: E. coli BL21 Star (DE3), co-expressed with yeast NMT, purified; spin-labelled on nanodiscs
Kd [7]: 100 to 1000 µM
